Experimental data: patent publication US20240018502A1

Target: plasma purified human complement protein C3 (human) (UniProt P01024)
Experiment: cell-based or functional assay

plasma purified human complement protein C3 (human), sequence (P01024 23-667, chain 1 of 2): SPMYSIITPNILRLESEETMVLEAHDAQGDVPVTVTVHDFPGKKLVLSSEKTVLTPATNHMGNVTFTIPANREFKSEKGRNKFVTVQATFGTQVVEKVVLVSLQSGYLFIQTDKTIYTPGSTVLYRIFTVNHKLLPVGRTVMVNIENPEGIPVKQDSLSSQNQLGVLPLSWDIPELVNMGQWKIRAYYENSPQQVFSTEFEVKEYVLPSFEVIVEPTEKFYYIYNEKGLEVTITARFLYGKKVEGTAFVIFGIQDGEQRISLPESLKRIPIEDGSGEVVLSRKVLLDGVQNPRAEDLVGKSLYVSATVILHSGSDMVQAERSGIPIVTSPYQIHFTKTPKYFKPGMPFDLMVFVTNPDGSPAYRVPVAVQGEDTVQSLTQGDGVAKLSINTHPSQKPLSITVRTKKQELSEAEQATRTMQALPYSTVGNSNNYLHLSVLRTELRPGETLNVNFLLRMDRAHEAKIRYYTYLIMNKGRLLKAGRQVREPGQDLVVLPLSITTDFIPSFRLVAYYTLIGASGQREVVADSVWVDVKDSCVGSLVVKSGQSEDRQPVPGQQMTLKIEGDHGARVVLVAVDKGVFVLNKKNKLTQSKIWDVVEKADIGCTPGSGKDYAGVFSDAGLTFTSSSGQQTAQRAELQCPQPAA
plasma purified human complement protein C3 (human), sequence (P01024 672-1663, chain 2 of 2): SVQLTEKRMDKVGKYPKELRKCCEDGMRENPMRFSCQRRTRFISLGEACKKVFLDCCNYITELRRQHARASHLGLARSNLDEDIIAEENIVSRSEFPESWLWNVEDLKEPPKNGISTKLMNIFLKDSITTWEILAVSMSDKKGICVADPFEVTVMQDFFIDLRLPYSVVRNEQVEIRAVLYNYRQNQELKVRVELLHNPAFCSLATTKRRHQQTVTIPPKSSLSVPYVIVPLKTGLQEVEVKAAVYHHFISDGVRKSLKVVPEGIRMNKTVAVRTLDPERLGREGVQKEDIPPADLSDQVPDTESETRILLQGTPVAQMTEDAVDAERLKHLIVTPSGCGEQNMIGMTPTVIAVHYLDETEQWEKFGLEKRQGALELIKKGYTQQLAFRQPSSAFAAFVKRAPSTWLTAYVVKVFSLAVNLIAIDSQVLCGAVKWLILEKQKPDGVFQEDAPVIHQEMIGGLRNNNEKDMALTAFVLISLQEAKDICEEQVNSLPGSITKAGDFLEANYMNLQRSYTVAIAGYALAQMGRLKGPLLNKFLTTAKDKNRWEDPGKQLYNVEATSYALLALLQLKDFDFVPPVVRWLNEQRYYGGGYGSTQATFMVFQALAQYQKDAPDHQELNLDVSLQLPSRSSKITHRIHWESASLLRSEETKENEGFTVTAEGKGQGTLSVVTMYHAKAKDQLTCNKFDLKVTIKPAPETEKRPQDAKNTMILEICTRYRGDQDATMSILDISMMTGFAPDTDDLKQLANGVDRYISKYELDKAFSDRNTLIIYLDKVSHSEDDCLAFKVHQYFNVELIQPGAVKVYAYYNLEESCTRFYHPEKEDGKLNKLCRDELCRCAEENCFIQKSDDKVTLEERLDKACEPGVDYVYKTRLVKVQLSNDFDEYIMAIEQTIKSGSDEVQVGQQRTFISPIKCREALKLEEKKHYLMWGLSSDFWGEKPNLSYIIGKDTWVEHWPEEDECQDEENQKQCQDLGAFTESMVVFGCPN

| Binder | EC50 hC3 cleavage [nM] | EC50 of hC3 cleavage [nM] |
| --- | --- | --- |
| MTSP-1 protease domain F99L/C122S/G151N/Q192T (enzyme) VVGGTDADEGEWPWQVSLHALGQGHICGASLISPNWLVSAAHCYIDDRGFRYSDPTQWTAFLGLHDQSQRSAPGVQERRLKRIISHPFFNDFTLDYDIALLELEKPAEYSSMVRPISLPDASHVFPAGKAIWVTGWGHTQYGGTNALILQKGEIRVINQTTCENLLPQQITPRMMCVGFLSGGVDSCTGDSGGPLSSVEADGRIFQAGVVSWGDGCAQRNKPGVYTRLPLFRDWIKENTGV | 225 | – |
| MTSP-1 protease domain I41D/F99L/C122S/G151N (enzyme) VVGGTDADEGEWPWQVSLHALGQGHDCGASLISPNWLVSAAHCYIDDRGFRYSDPTQWTAFLGLHDQSQRSAPGVQERRLKRIISHPFFNDFTLDYDIALLELEKPAEYSSMVRPISLPDASHVFPAGKAIWVTGWGHTQYGGTNALILQKGEIRVINQTTCENLLPQQITPRMMCVGFLSGGVDSCQGDSGGPLSSVEADGRIFQAGVVSWGDGCAQRNKPGVYTRLPLFRDWIKENTGV | 16.9 | – |
| MTSP-1 protease domain I41D/D96E/F99L/C122S/G151N/Q192T (enzyme) VVGGTDADEGEWPWQVSLHALGQGHDCGASLISPNWLVSAAHCYIDDRGFRYSDPTQWTAFLGLHDQSQRSAPGVQERRLKRIISHPFFNEFTLDYDIALLELEKPAEYSSMVRPISLPDASHVFPAGKAIWVTGWGHTQYGGTNALILQKGEIRVINQTTCENLLPQQITPRMMCVGFLSGGVDSCTGDSGGPLSSVEADGRIFQAGVVSWGDGCAQRNKPGVYTRLPLFRDWIKENTGV | 51.5 | – |
| MTSP-1 protease domain I41D/F99L/M117T/C122S/G151N/Q192T/A204D/D217E (enzyme) VVGGTDADEGEWPWQVSLHALGQGHDCGASLISPNWLVSAAHCYIDDRGFRYSDPTQWTAFLGLHDQSQRSAPGVQERRLKRIISHPFFNDFTLDYDIALLELEKPAEYSSTVRPISLPDASHVFPAGKAIWVTGWGHTQYGGTNALILQKGEIRVINQTTCENLLPQQITPRMMCVGFLSGGVDSCTGDSGGPLSSVEDDGRIFQAGVVSWGEGCAQRNKPGVYTRLPLFRDWIKENTGV | 25.3 | – |
| MTSP-1 protease domain I41D/D96E/C122S/G151N/Q192T (enzyme) VVGGTDADEGEWPWQVSLHALGQGHDCGASLISPNWLVSAAHCYIDDRGFRYSDPTQWTAFLGLHDQSQRSAPGVQERRLKRIISHPFFNEFTFDYDIALLELEKPAEYSSMVRPISLPDASHVFPAGKAIWVTGWGHTQYGGTNALILQKGEIRVINQTTCENLLPQQITPRMMCVGFLSGGVDSCTGDSGGPLSSVEADGRIFQAGVVSWGDGCAQRNKPGVYTRLPLFRDWIKENTGV | 78.8 | – |
| MTSP-1 protease domain I41D/G43A/D96E/F99L/C122S/G151N/Q192T (enzyme) VVGGTDADEGEWPWQVSLHALGQGHDCAASLISPNWLVSAAHCYIDDRGFRYSDPTQWTAFLGLHDQSQRSAPGVQERRLKRIISHPFFNEFTLDYDIALLELEKPAEYSSMVRPISLPDASHVFPAGKAIWVTGWGHTQYGGTNALILQKGEIRVINQTTCENLLPQQITPRMMCVGFLSGGVDSCTGDSGGPLSSVEADGRIFQAGVVSWGDGCAQRNKPGVYTRLPLFRDWIKENTGV | 45 | – |
| MTSP-1 protease domain I41D/D96E/F99L/C122S/G151N/Q192T/D217E (enzyme) VVGGTDADEGEWPWQVSLHALGQGHDCGASLISPNWLVSAAHCYIDDRGFRYSDPTQWTAFLGLHDQSQRSAPGVQERRLKRIISHPFFNEFTLDYDIALLELEKPAEYSSMVRPISLPDASHVFPAGKAIWVTGWGHTQYGGTNALILQKGEIRVINQTTCENLLPQQITPRMMCVGFLSGGVDSCTGDSGGPLSSVEADGRIFQAGVVSWGEGCAQRNKPGVYTRLPLFRDWIKENTGV | 27.6 | – |
| MTSP-1 I41S/D60bT/F60eS/Y60gW/D96K/F97G/ins97aV/T98P/F99L/C122S/G151H/Q175L/Q192D (enzyme) VVGGTDADEGEWPWQVSLHALGQGHSCGASLISPNWLVSAAHCYIDTRGSRWSDPTQWTAFLGLHDQSQRSAPGVQERRLKRIISHPFFNKGVPLDYDIALLELEKPAEYSSMVRPISLPDASHVFPAGKAIWVTGWGHTQYGGTHALILQKGEIRVINQTTCENLLPQLITPRMMCVGFLSGGVDSCDGDSGGPLSSVEADGRIFQAGVVSWGDGCAQRNKPGVYTRLPLFRDWIKENTGV | – | 17.1 |
| MTSP-1 Q38H/D60bT/F60eS/Y60gW/D96K/F97G/ins97aV/T98P/F99L/C122S/G151H/Q175L/Q192D (enzyme) VVGGTDADEGEWPWQVSLHALGHGHICGASLISPNWLVSAAHCYIDTRGSRWSDPTQWTAFLGLHDQSQRSAPGVQERRLKRIISHPFFNKGVPLDYDIALLELEKPAEYSSMVRPISLPDASHVFPAGKAIWVTGWGHTQYGGTHALILQKGEIRVINQTTCENLLPQLITPRMMCVGFLSGGVDSCDGDSGGPLSSVEADGRIFQAGVVSWGDGCAQRNKPGVYTRLPLFRDWIKENTGV | – | 215 |

Further lines, results first:

| EC50 hC3 cleavage [nM] | EC50 of hC3 cleavage [nM] | Binder |
| --- | --- | --- |
| 414 | – | MTSP-1 protease domain I41D/Y59F/F99L/C122S/G151N/Q192T/V213A (enzyme) VVGGTDADEGEWPWQVSLHALGQGHDCGASLISPNWLVSAAHCFIDDRGFRYSDPTQWTAFLGLHDQSQRSAPGVQERRLKRIISHPFFNDFTLDYDIALLELEKPAEYSSMVRPISLPDASHVFPAGKAIWVTGWGHTQYGGTNALILQKGEIRVINQTTCENLLPQQITPRMMCVGFLSGGVDSCTGDSGGPLSSVEADGRIFQAGVASWGDGCAQRNKPGVYTRLPLFRDWIKENTGV |
| 13.9 | – | MTSP-1 protease domain I41S/F99L/C122S/G151N/Q175P (enzyme) VVGGTDADEGEWPWQVSLHALGQGHSCGASLISPNWLVSAAHCYIDDRGFRYSDPTQWTAFLGLHDQSQRSAPGVQERRLKRIISHPFFNDFTLDYDIALLELEKPAEYSSMVRPISLPDASHVFPAGKAIWVTGWGHTQYGGTNALILQKGEIRVINQTTCENLLPQPITPRMMCVGFLSGGVDSCQGDSGGPLSSVEADGRIFQAGVVSWGDGCAQRNKPGVYTRLPLFRDWIKENTGV |
| 20 | – | MTSP-1 protease domain I41E/F99L/C122S/G151N/Q175G (enzyme) VVGGTDADEGEWPWQVSLHALGQGHECGASLISPNWLVSAAHCYIDDRGFRYSDPTQWTAFLGLHDQSQRSAPGVQERRLKRIISHPFFNDFTLDYDIALLELEKPAEYSSMVRPISLPDASHVFPAGKAIWVTGWGHTQYGGTNALILQKGEIRVINQTTCENLLPQGITPRMMCVGFLSGGVDSCQGDSGGPLSSVEADGRIFQAGVVSWGDGCAQRNKPGVYTRLPLFRDWIKENTGV |
| 33.9 | – | MTSP-1 protease domain I41E/F99L/C122S/Q175G/Q192T (enzyme) VVGGTDADEGEWPWQVSLHALGQGHECGASLISPNWLVSAAHCYIDDRGFRYSDPTQWTAFLGLHDQSQRSAPGVQERRLKRIISHPFFNDFTLDYDIALLELEKPAEYSSMVRPISLPDASHVFPAGKAIWVTGWGHTQYGGTGALILQKGEIRVINQTTCENLLPQGITPRMMCVGFLSGGVDSCTGDSGGPLSSVEADGRIFQAGVVSWGDGCAQRNKPGVYTRLPLFRDWIKENTGV |
| 37.6 | – | MTSP-1 protease domain I41D/G43A/F99L/C122S/G151N/Q192T/P232S/K239R (enzyme) VVGGTDADEGEWPWQVSLHALGQGHDCAASLISPNWLVSAAHCYIDDRGFRYSDPTQWTAFLGLHDQSQRSAPGVQERRLKRIISHPFFNDFTLDYDIALLELEKPAEYSSMVRPISLPDASHVFPAGKAIWVTGWGHTQYGGTNALILQKGEIRVINQTTCENLLPQQITPRMMCVGFLSGGVDSCTGDSGGPLSSVEADGRIFQAGVVSWGDGCAQRNKPGVYTRLSLFRDWIRENTGV |
| 64.3 | – | MTSP-1 protease domain I41S/F99L/C122S/Q175P/Q192V (enzyme) VVGGTDADEGEWPWQVSLHALGQGHSCGASLISPNWLVSAAHCYIDDRGFRYSDPTQWTAFLGLHDQSQRSAPGVQERRLKRIISHPFFNDFTLDYDIALLELEKPAEYSSMVRPISLPDASHVFPAGKAIWVTGWGHTQYGGTGALILQKGEIRVINQTTCENLLPQPITPRMMCVGFLSGGVDSCVGDSGGPLSSVEADGRIFQAGVVSWGDGCAQRNKPGVYTRLPLFRDWIKENTGV |
